From article PMC4773095

Target: NsrR, response regulator from Streptococcus agalactiae COH1 (full length) (Streptococcus agalactiae COH1)
Assay: SEC; Superdex 200 GL 10/300, buffer C (25 mM Tris pH 9.0, 50 mM NaCl, 2 mM PMSF); column calibrated with proteins of known molecular weight

Substance: NsrR, response regulator from Streptococcus agalactiae COH1 (full length) (natural protein)
- stoichiometry N: 2
